This series has as its target T1, NF1 GAP-related domain (GRD) (UniProt P21359).
T1 sequence: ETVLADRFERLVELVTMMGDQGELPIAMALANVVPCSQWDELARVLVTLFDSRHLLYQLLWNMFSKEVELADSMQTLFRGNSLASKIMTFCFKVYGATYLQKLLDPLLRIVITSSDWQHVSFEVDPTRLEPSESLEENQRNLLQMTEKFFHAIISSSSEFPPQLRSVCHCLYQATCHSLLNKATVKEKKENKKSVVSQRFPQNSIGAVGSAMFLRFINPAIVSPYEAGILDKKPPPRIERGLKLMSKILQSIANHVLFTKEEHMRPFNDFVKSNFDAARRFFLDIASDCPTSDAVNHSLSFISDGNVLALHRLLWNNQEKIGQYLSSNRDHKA

With purified KRAS^WT loaded with GTP, the “GTP hydrolysis by KRAS^WT” value was “conventional RAS-GAPs (such as NF1), which potently enhance hydrolysis by KRAS^WT (FIG. 3B: NF1>>RGS3)”.

The values above are taken from patent US20240219403.
